According to PMC9089796, “Oxidative stress promotes fibrosis in systemic sclerosis through stabilization of a kinase-phosphatase complex” (JCI Insight, 2022):

Target: T1, full-length human SRC, purified (human, UniProt P12931 1-536)
T1 construct: also called full-length SRC; not shown: GST, N-terminal, cleaved
Assay: pull-down; His6-tagged PTP4A1 on Ni-NTA agarose beads (untreated, or treated with 0.5 mM H2O2 or 20 mM DTT for 1 hour); 0.5 μg SRC or 17.2 nmol GST-tagged SH3SH2 in 1 mL 60 mM HEPES pH 7.4, 5 mM MgCl2, 5 mM MnCl2, 1% BSA; 4°C, 2 hours; Western blotting
Conditions: both partners purified

Row | Binder | binding result
1 | His6-tagged oxidized PTP4A1 (residues 1-160), bound to Ni-NTA agarose (domain or fragment, human, UniProt Q93096 1-160, looked up, oxidized: disulfide bond between Cys104 and Cys49, also called oxo-PTP4A1; source: E. coli BL21 (DE3), purified (Ni-NTA, cation exchange); beads incubated with 0.5 mM H2O2 for 1 hour; not shown: His6, N-terminal, kept) MARMNRPAPVEVTYKNMRFLITHNPTNATLNKFIEELKKYGVTTIVRVCEATYDTTLVEKEGIHVLDWPFDDGAPPSNQIVDDWLSLVKIKFREEPGCCIAVHCVAGLGRAPVLVALALIEGGMKYEDAVQFIRQKRRGAFNSKQLLYLEKYRPKMRLRF | binds
2 | His6-tagged PTP4A1 (residues 1-160), untreated, bound to Ni-NTA agarose (domain or fragment, human, UniProt Q93096 1-160, looked up, Not treated with H2O2 or DTT; also called protein tyrosine phosphatase 4A type 1; untreated beads containing both oxidized and reduced PTP4A1; source: E. coli BL21 (DE3), purified (Ni-NTA, cation exchange); not shown: His6, N-terminal, kept) MARMNRPAPVEVTYKNMRFLITHNPTNATLNKFIEELKKYGVTTIVRVCEATYDTTLVEKEGIHVLDWPFDDGAPPSNQIVDDWLSLVKIKFREEPGCCIAVHCVAGLGRAPVLVALALIEGGMKYEDAVQFIRQKRRGAFNSKQLLYLEKYRPKMRLRF | binds
